Test results taken from article PMC4240654.

Assays:
[1] = biological target: SC rFVIIIFc (single chain recombinant factor VIII Fc fusion protein) (human)
[2] = biological target: rFVIIIFc (recombinant factor VIII Fc fusion protein) (human) (UniProt P00451)
[3] = biological target: BDD rFVIII (recombinant B-domain-deleted factor VIII, ReFacto / Xyntha) (UniProt P00451)
[4] = biological target: SC rFVIIIFc R1645A/R1648A (human)

- Apparent K D (FIXa-FVIIIa affinity), FXa generation assay on synthetic phospholipids, thrombin-activated SC rFVIIIFc [1]: 4.1 nM
- Apparent K D (FIXa-FVIIIa affinity), FXa generation assay on synthetic phospholipids, thrombin-activated rFVIIIFc [2]: 5.5 nM
- Apparent K D (FIXa-FVIIIa affinity), FXa generation assay on synthetic phospholipids, thrombin-activated BDD rFVIII (ReFacto) [3]: 4.5 nM
- Apparent K D (FIXa-FVIIIa affinity), FXa generation assay on synthetic phospholipids, thrombin-activated SC rFVIIIFc R1645A/R1648A [4]: 3.8 nM
Substance: FIXa (activated factor IX) (enzyme)
